Publication PMC2712976 (The Journal of General Physiology, 2009)

What was measured:
F-actin = F-actin (UniProt P68135); test: co-sedimentation
gel electrophoresis = target: the molecule itself; test: gel electrophoresis
CFP-SERCA1a = CFP-SERCA1a (UniProt O14983-2 1-994); test: FRET or BRET

## first four N-terminal domains (C0-C1-motif-C2) of cardiac myosin binding protein C (domain or fragment)
F-actin
  Kd: 10 µM
  stoichiometry N: 1 molar ratio

B1: WT phospholamban (in vitro sample) (natural protein)
chain: MEKVQYLTRSAIRRASTIEMPQQARQKLQNLFINFCLILICLLLICIIVMLL
Gel electrophoresis
  stoichiometry N: 5

B2: YFP-PLB (natural protein)
chain: MEKVQYLTRSAIRRASTIEMPQQARQKLQNLFINFCLILICLLLICIIVMLL
CFP-SERCA1a
  fold higher apparent affinity relative to SERCA2a: 2.6 fold
